Measured values published in US20130344053A1, “Methods of Modifying Insulin Signaling Using Biliverdin Reductase (BVR) and BVR Derived Peptides” (University of Rochester, priority 2010, published 2013).
Where a chain is given by its changes, count along the chain named. Each block holds one molecule with its values, some of them ahead of it.

How the values were obtained:
Type in all cases: biochemical
[1] = target: T1, insulin receptor kinase (IRK) (Homo sapiens, UniProt P06213); experiment: BVR phosphorylation by the insulin receptor tyrosine kinase (IRK); settings: for reduction of extent of BVR phosphorylation by IRK compared with wtBVR: tyrosine point mutant as IRK substrate, 2 h at 30° C.; for BVR phosphorylation by IRK (mutant as substrate): tyrosine point or double mutant as IRK substrate
T1 construct: GST-hBVR fusion protein and the 48 kDa cytoplasmic domain of the β-subunit of IRK; purchased Biomol International (Plymouth, Pa.)
T1 sequence (P06213 980-1382 limits assumed): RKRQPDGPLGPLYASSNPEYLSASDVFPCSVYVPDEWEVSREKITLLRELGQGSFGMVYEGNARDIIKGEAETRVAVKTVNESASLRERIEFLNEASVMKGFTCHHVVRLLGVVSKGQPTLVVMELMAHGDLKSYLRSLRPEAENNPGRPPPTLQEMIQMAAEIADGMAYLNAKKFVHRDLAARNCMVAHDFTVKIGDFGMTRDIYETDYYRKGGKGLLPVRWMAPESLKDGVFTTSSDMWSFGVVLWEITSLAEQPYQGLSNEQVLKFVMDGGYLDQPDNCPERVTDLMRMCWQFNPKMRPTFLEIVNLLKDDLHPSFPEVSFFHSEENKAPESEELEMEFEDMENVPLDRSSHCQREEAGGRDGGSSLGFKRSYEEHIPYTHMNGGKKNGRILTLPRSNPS
Protocol: FIGS. 7A-B illustrate BVR as a substrate for insulin receptor kinase. […] 10 μg purified wtBVR was incubated in 100 μl kinase assay buffer (pH 8.0) containing 0.1 μg IRK, 10 μM ATP, and 20 μCi [^32P]-ATP at 25° C. up to 4 h. The reaction was terminated by the addition of Laemmli buffer at different points of time as indicated. Samples were separated using 8% SDS-PAGE gel and transferred onto PVDF filter, and phosphorylated protein bands were visualized by autoradiography. […] From left to right lane 1, wtBVR plus IRK in the presence of 50 mM EDTA (pH 8.0); lane 2, wtBVR plus IRK; lane 3, wtBVR in the absence of IRK. The reaction mixtures were subjected to SDS-PAGE electrophoresis and transferred onto a polyvinylidene fluoride (“PVDF”) filter. The blot was immuno-stained with anti-phosphotyrosine antibodies and ECL detection system was used to visualize phosphorylated tyrosines. […] In FIG. 8A the Y^198 residue of BVR is phosphorylated by IRK. Purified wtBVR and Y^198 mutant BVR were incubated with IRK at 30° C. for 2 h. Samples were subjected to SDS-PAGE electrophoresis and processed as described in FIG. 8B. FIG. 8B is a time course of Y^198 mutant BVR phosphorylation by IRK. A purified preparation of human BVR that carried Y^198 mutation was incubated with IRK for up to 3 h as described in FIG. 7A. Samples taken at the indicated time-points were analyzed for detection of phosphorylated proteins as above. […] Subsequently, samples were subjected to SDS-PAGE, stained with Coomassie blue and visualized bands were excised and used for measurement of radioactive content. The experiments were repeated three times. […] The indicated double mutants of BVR were used as substrates for IRK and analysis was carried out as in FIG. 8A. FIGS. 10A-B illustrate that autophosphorylation of BVR is an Mn^+2 dependant kinase reaction. […] The effects of different metal ions (30 mM MnCl2, 20 mM MgCl2, 20 mM CaCl2, 20 mM Zn acetate) and their combinations were analyzed as indicated in the text. […] The reactions were carried out in HEPES buffer (pH 8.0) in the presence of 20 mM MgCl2 as described in the Examples. Phosphorylation of BVR by IRK was examined using GST-hBVR fusion protein and the 48 kDa cytoplasmic domain of the β-subunit of IRK. BVR (5 μg) was incubated in 50 μl of IRK kinase buffer containing 50 mM HEPES (pH 8.0), 20 mM MgCl2, 1 mM DTT in the presence of 0.05 μg IRK and 10 μM ATP labeled with 10 μCi [γ-^32P]-ATP. The reaction was started with the addition of labeled ATP and incubated for 2-4 h. Reactions were terminated by addition of Laemmli sample buffer and boiled for 3 min. Samples were subjected to 8% SDS-PAGE and transferred to PVDF membranes for autoradiography.

BVR = target: T2, BVR (Homo sapiens, UniProt P53004, A154S/E160D/G155D); experiment: Phosphorylation of IRS-1 peptides by BVR; settings: peptide as substrate for BVR kinase
T2 construct: made in house; host or cells: E. coli (pGEX 4T-2/hBVR)
T2 sequence (P53004 3-296 A154S/G155D/E160D): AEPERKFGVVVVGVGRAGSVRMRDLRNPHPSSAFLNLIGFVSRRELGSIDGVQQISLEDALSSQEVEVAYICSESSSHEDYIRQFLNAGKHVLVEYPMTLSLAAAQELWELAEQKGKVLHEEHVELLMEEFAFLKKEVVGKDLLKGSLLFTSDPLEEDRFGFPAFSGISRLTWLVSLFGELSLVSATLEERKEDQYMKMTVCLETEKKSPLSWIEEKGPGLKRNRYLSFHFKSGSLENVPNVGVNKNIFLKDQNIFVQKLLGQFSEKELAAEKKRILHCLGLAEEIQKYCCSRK
Protocol: (§1) To detect autophosphorylation of BVR, GST-hBVR of wild type (wt) and mutant variants were incubated in 50 mM HEPES buffer (pH 8.4) in the presence of 30 mM MnCl2 and 1 mM DTT for 2 h at 30° C. The reaction was started with the addition of 10 μM ATP labeled with 10 μCi [γ-^32P]-ATP and was stopped with the addition of Laemmli sample buffer. Samples were boiled for 3 min and applied to a 8% SDS-PAGE gels, transferred to a PVDF membrane, and then visualized by autoradiography. To measure kinase activity, GST-BVR (5 μg) was incubated in 5 μl kinase buffer containing 50 mM HEPES buffer (pH 8.4), 20 mM MgCl2, 30 mM MnCl2, 1 mM DTT and 10 μM ATP labeled with 10 μCi [γ-^32P]-ATP in the presence of 5 μg substrates: IRS-1 or Raytide or poly glu/tyr (4:1) for 2 h at 30° C. The reaction was started with the addition of ATP and terminated by adding 120 μl 10% H3PO4. 100 μl aliquots were directly transferred to P81 Whatman filters which were subsequently washed extensively in 0.75% phosphoric acid at room temperature. Finally, the filters were submerged in acetone for 5 min, dried, and retained counts were measured using a Beckman LS 6500 liquid scintillation counter (Beckman Coulter, Fullerton, Calif.).
The following experiments were conducted to determine whether IRS is a substrate for serine kinase activity of BVR or its tyrosine kinase activity. […]

human BVR = experiment: BVR autophosphorylation; settings: pH 8.4, 30 mM MnCl2, 2 h at 30° C.
Protocol: In FIG. 9A, effect of tyrosine mutations of BVR on its autophosphorylation is shown. Human wtBVR and BVR with mutations in tyrosine were used in the experiment to determine autophosphorylation of BVR. The reactions were performed as described in the Examples. FIG. 9B is a graph showing that BVR tyrosine kinase activity was checked by incubating 5 μg purified BVR with 5 μg Raytide in 50 μl kinase buffer containing 10 μM labeled ATP for 2 h at 30° C. The aliquots of the reaction were transferred onto P81 Whatman filters and radioactivity due to phosphorylation was measured using a scintillation counter.
FIGS. 10A-B illustrate that autophosphorylation of BVR is an Mn^+2 dependant kinase reaction. […] The effects of different metal ions (30 mM MnCl2, 20 mM MgCl2, 20 mM CaCl2, 20 mM Zn acetate) and their combinations were analyzed as indicated in the text. […] Phosphorylation of wtBVR by IRK in the presence of tyrosine kinase inhibitor genestein (200 μM); DMSO was used as the vehicle for genestein and was included in the control reaction mixture. The reactions were carried out in HEPES buffer (pH 8.0) in the presence of 20 mM MgCl2 as described in the Examples.
as §1, with “To measure kinase activity, GST-BVR (5 μg) was incubated in 5 μl kinase buffer containing 50 mM HEPES buffer (pH 8.4), 20 mM MgCl2, 30 mM MnCl2, 1 mM DTT and 10 μM ATP labeled with 10 μCi [γ-^32P]-ATP in the presence of 5 μg substrates: IRS-1 or Raytide or poly glu/tyr (4:1) for 2 h at 30° C.” left out

Molecule: O=c1c(-c2ccc(O)cc2)coc2cc(O)cc(O)c12 [Genestein, reference compound]
- BVR phosphorylation mediated by IRK in presence of PTK inhibitor ([1]; genestein 200 μM, HEPES pH 8.0, 20 mM MgCl2): significantly inhibited BVR phosphorylation mediated by IRK

B3: Y^198 plus Y^228: human BVR double mutant DQFMK and NRFLS (protein, UniProt P53004 3-296, looked up, variant Y198F Y228F)
Biliverdin reductase A: T2 sequence (P53004 3-296 A154S/G155D/E160D) with S152A, D153G, D158E, Y196F, Y226F
- BVR phosphorylation by IRK (mutant as substrate) [1]: little or no phosphorylation was detected

B4: Y^198 plus Y^291: human BVR double mutant DQFMK and QKFCC (protein, UniProt P53004 3-296, looked up, variant Y198F Y291F)
Biliverdin reductase A: T2 sequence (P53004 3-296 A154S/G155D/E160D) with S152A, D153G, D158E, Y196F, Y289F
- BVR phosphorylation by IRK (mutant as substrate) [1]: little or no phosphorylation was detected

The next lines start with results.

- phosphorylation of BVR by IRK in presence of EDTA ([1]; 50 mM EDTA (pH 8.0), 30° C., 2 h): abolished phosphorylation of BVR by IRK
Molecule: O=C(O)CN(CCN(CC(=O)O)CC(=O)O)CC(=O)O [EDTA, reference compound]

- phosphorylation of IRS-1 peptide by BVR (BVR): 1198±230 cpm
Molecule: Arg-Thr-Glu-Ser^307-Ile-Thr-Ala-Thr-Ser^312-Pro-Ala-Ser^315-Met-Val-Gly-Gly-Lys-Pro (RTESITATSPASMVGGKP; Biliverdin reductase peptide) [second IRS-1 peptide (#2), IRS-1 peptide containing S^307, S^312, and S^315]

- phosphorylation of IRS-1 peptide by BVR (BVR): 1049±78 cpm
Molecule: Lys-Lys-His-Ala-Asp-Asp-Gly-Ala-Met-Pro-Met-Ser^312-Pro-Gly-Val-Ala (KKHADDGAMPMSPGVA; Biliverdin reductase peptide) [mutant IRS-1 peptide (#1), mutant IRS-1 peptide without tyrosine, only S^616 maintained]

- reduction of extent of BVR phosphorylation by IRK compared with wtBVR [1]: 40%
B1: Y^228: human BVR point mutant NRYLS to NRFLS (protein, UniProt P53004 3-296, looked up, variant Y228F)
Biliverdin reductase A: T2 sequence (P53004 3-296 A154S/G155D/E160D) with S152A, D153G, D158E, Y226F
- autophosphorylation of BVR (mutants) (human BVR): did not result in significant changes in autophosphorylation of BVR

- reduction of extent of BVR phosphorylation by IRK compared with wtBVR [1]: 49%
B2: Y^291: human BVR point mutant QKYCC to QKFCC (protein, UniProt P53004 3-296, looked up, variant Y291F)
Biliverdin reductase A: T2 sequence (P53004 3-296 A154S/G155D/E160D) with S152A, D153G, D158E, Y289F
- autophosphorylation of BVR (mutants) (human BVR): did not result in significant changes in autophosphorylation of BVR
